Test results reported in patent publication US20230192860A1 (Bristol-Myers Squibb, published 2023).

What was measured:
[1] = target: T1, monovalent hVISTA-ECD (amino acids 32-193 of SEQ ID NO: 1 with a 7xHis tail) (human, UniProt Q9H7M9 33-193); test: SPR 37C, Ab on Protein A, hVISTA-ECD 50-0.2 nM, column headed pH 7 (running buffer pH 7.4 in the text)
T1 construct: analyte of the SPR assays; also called huVISTA-His; human VISTA-ECD
Procedure: (§1) Surface plasmon resonance (SPR) analysis was performed to measure the association rates (defined as ka or kₒₙ, 1/Ms units), dissociation rates (defined as kd or koff, s⁻¹ units) and affinity constants (defined as KD, M units) for VISTA Abs at acidic and physiological pHs using a Biacore® T200 instrument (GE Healthcare). […] Antibodies were diluted to 20 nM in PBST pH 7.4, and were captured across active biosensor flow cells at 5 ul/min for 50 seconds. A concentration series of 50 - 0.2 nM monovalent hVISTA-ECD (SEQ ID NO: 325) was prepared in pH 7.4 and 6.0 running buffers, and was injected over the captured antibodies at 40 ul/min to measure association and dissociation. Two 15 second injections of 10 mM glycine pH 1.5 were used to regenerate the Protein A capture surface between assay cycles. Rate constants kₐ (kₒₙ) and kd (kₒff) were derived from reference flow cell and 0 nM blank-subtracted sensorgrams, and were fit to a 1:1 binding model in Biacore® T200 Evaluation Software v.2.0.

[2] = target: T1, monovalent hVISTA-ECD (amino acids …); test: SPR 37C, Ab on Protein A, hVISTA-ECD 100-0.78 nM, pH 7.4
Procedure: (§2) Human VISTA binding kinetics of P1-061029 (“ ‘029”), P1-068761 (“ ‘761”) and P1-068767 (“ ‘767”) (as IgG1.3 antibodies) were measured at pH values between pH 7.4 and pH 6.0, i.e., at pH 6.9 and pH 6.45 using a Biacore® T100 instrument (GE Healthcare). […] Antibodies were diluted to 25 nM in PBST pH 7.4, and were captured across active biosensor flow cells at 5 ul/min for 45 seconds. A concentration series of 100 - 0.78 nM monovalent hVISTA-ECD (SEQ ID NO: 325) was prepared pH 7.4, 6.9, 6.45 and 6.0 running buffers, and was injected over the captured antibodies at 40 ul/min to measure association and dissociation. Two 15 second injections of 10 mM glycine pH 1.5 were used to regenerate the Protein A capture surface between assay cycles. Rate constants ka (kₒₙ) and kd (koff) were derived from reference flow cell and 0 nM blank-subtracted sensorgrams, and were fit to a 1:1 binding model in Biacore® T200 Evaluation Software v.2.0. The affinity constant, KD was calculated as the ratio of rate constants koff/kₒₙ for each VISTA antibody. Ratios of koff and KD at each pH relative to pH 6.0 were calculated to evaluate how the VISTA koff and KD change as the buffer pH shifts to physiological, and are shown in Table 7. […] As the buffer pH shifts from acidic to physiological, VISTA koff and KD both weaken for ‘761 and ‘767. Physiological pH data for ‘761 and ‘767 for comparison is referenced from Table 7 and noted with an asterisk (*).

[3] = target: T1, monovalent hVISTA-ECD (amino acids …); test: SPR 37C, Ab on Protein A, hVISTA-ECD 50-0.2 nM, pH 6.0
Procedure: as §1

[4] = target: T1, monovalent hVISTA-ECD (amino acids …); test: SPR 37C, pH 6.0 over pH 6.0
[5] = target: T1, monovalent hVISTA-ECD (amino acids …); test: SPR 37C, Ab on Protein A, hVISTA-ECD 1600-0.78 nM, pH 7.4
Procedure: (§3) For this assay, ‘029, ‘761 and ‘767were reformatted as hIgG1f isotype and were expressed as both standard hIgG1f and in hIgG1f afucosylated formats to compare against the hIgG1.3f Fc. An SPR kinetics assay was conducted to measure koff and KD binding affinity measurements for VISTA Abs at acidic and physiological pH using a Biacore® T100 instrument (GE Healthcare). […] Antibodies were diluted to 25 nM in PBST pH 7.4, and were captured across active biosensor flow cells at 5 ul/min for 45 seconds. A concentration series of 1600 - 0.78 nM (pH 7.4) and 100 - 0.78 nM (pH 6.0) monovalent hVISTA-ECD (SEQ ID NO: 325) was prepared running buffer, and was injected over the captured antibodies at 40 ul/min to measure association and dissociation. Two 15 second injections of 10 mM glycine pH 1.5 were used to regenerate the Protein A capture surface between assay cycles. Rate constants ka (kₒₙ) and kd (koff) were derived from reference flow cell and 0 nM blank-subtracted sensorgrams, and were fit to a 1:1 binding model in Biacore® T200 Evaluation Software v.2.0. The affinity constant, KD was calculated as the ratio of rate constants koff/kₒₙ for each VISTA antibody. Ratios of koff and KD at pH 7.4 / pH 6.0 were calculated to compare off-rate and affinity improvement at acidic pH relative to physiological pH.

[6] = target: T1, monovalent hVISTA-ECD (amino acids …); test: SPR 37C, Ab on Protein A, hVISTA-ECD 100-0.78 nM, pH 6.9
Procedure: as §2

[7] = target: T1, monovalent hVISTA-ECD (amino acids …); test: SPR 37C, pH 7.4 over pH 6.0
Procedure: as §3

[8] = target: T1, monovalent hVISTA-ECD (amino acids …); test: SPR 37C, pH 7.4 * over pH 6.0

T1 sequence (Q9H7M9 other isoform, or with tags, fused parts or gaps limits assumed): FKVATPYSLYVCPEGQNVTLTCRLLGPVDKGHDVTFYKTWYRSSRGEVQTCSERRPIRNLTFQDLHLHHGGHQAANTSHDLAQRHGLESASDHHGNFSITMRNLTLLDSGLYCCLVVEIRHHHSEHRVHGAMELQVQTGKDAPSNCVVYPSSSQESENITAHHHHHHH

koff [1] [s⁻¹] | Kd [2] [nM] | koff [2] [s⁻¹] | kon [2] [M⁻¹ s⁻¹] | koff [3] [s⁻¹] | KD ratio to pH 6.0 [4] | koff ratio to pH 6.0 [4] | Kd [5] [nM] | koff [5] [s⁻¹] | kon [5] [M⁻¹ s⁻¹] | Kd [6] [nM] | koff [6] [s⁻¹] | kon [6] [M⁻¹ s⁻¹] | KD ratio (7.4/6) [7] | kd ratio (7.4/6) [7] | KD ratio to pH 6.0 [8] | koff ratio to pH 6.0 [8] | Binder
0.0091 | 26 | 0.0064 | 250000 | 0.0048 | 1 | 1 | 42 | 0.0068 | 160000 | 14 | 0.0057 | 410000 | 5.8 | 0.9 |  |  | P1-061029.IgG1.3 (antibody, IgG1.3; also called P1-061029 (parent); P1-061029-18) heavy: EVQLVESGGGLVQPGKSLRLSCAASGFTLDDYAMHWVRQAPGKGLEWVSGINWNSANIGYADSVKGRFTISRDNAKNSLYLQMNSLRTEDTALYYCAKVPGYSGGWIDAFDVWGQGTMVTVSSASTKGPSVFPLAPSSKSTSGGTAALGCLVKDYFPEPVTVSWNSGALTSGVHTFPAVLQSSGLYSLSSVVTVPSSSLGTQTYICNVNHKPSNTKVDKRVEPKSCDKTHTCPPCPAPEAEGAPSVFLFPPKPKDTLMISRTPEVTCVVVDVSHEDPEVKFNWYVDGVEVHNAKTKPREEQYNSTYRVVSVLTVLHQDWLNGKEYKCKVSNKALPAPIEKTISKAKGQPREPQVYTLPPSREEMTKNQVSLTCLVKGFYPSDIAVEWESNGQPENNYKTTPPVLDSDGSFFLYSKLTVDKSRWQQGNVFSCSVMHEALHNHYTQKSLSLSPG light: not shown
 |  |  |  |  | 1 | 1 | 11000 | 0.042 | 3800 | 190 | 0.0089 | 48000 | 2560 | 26.3 | ~10000 | ~63.6 | P1-068761.IgG1.3 (antibody, IgG1.3; also called P1-068761-20; P1-068761 hIgG1.3f) heavy: EVQLVESGGGLVQPGKSLRLSCAASGFTLEDEAMHWVRQAPGKGLEWVSGINWNSEEIGYADSVKGRFTISRDNAKNSLYLQMNSLRTEDTALYYCAKVPGYSHGWIDAEDVWGQGTMVTVSSASTKGPSVFPLAPSSKSTSGGTAALGCLVKDYFPEPVTVSWNSGALTSGVHTFPAVLQSSGLYSLSSVVTVPSSSLGTQTYICNVNHKPSNTKVDKRVEPKSCDKTHTCPPCPAPEAEGAPSVFLFPPKPKDTLMISRTPEVTCVVVDVSHEDPEVKFNWYVDGVEVHNAKTKPREEQYNSTYRVVSVLTVLHQDWLNGKEYKCKVSNKALPAPIEKTISKAKGQPREPQVYTLPPSREEMTKNQVSLTCLVKGFYPSDIAVEWESNGQPENNYKTTPPVLDSDGSFFLYSKLTVDKSRWQQGNVFSCSVMHEALHNHYTQKSLSLSPG light: not shown
